Measured values: IntAct's records for PubMed 16615911

B1: E3 ubiquitin-protein ligase SIAH1A (Mus musculus), P61092 (parent)
chain: MSRQTATALPTGTSKCPPSQRVPALTGTTASNNDLASLFECPVCFDYVLPPILQCQSGHLVCSNCRPKLTCCPTCRGPLGSIRNLAMEKVANSVLFPCKYASSGCEITLPHTEKAEHEELCEFRPYSCPCPGASCKWQGSLDAVMPHLMHQHKSITTLQGEDIVFLATDINLPGAVDWVMMQSCFGFHFMLVLEKQEKYDGHQQFFAIVQLIGTRKQAENFAYRLELNGHRRRLTWEATPRSIHEGIATAIMNSDCLVFDTSIAQLFAENGNLGINVTISMC
partner: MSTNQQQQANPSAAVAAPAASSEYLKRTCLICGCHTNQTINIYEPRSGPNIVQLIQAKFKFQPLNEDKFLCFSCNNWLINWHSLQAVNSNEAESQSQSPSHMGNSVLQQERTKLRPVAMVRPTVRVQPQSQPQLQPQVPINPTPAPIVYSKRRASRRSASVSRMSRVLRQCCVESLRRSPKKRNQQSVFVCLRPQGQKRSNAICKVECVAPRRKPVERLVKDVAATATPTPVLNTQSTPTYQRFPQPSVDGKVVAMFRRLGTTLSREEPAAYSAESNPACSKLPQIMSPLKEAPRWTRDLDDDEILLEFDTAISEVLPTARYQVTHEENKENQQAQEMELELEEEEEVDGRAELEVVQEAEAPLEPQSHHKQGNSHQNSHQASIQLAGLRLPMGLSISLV

Variants of: B1
Conditions: with phyl_drome phyl
MSRQTATALPTGTSKCPPSQRVPALTGTTASNNDLASLFECPVCFDYVLPPILQCQSGHLVCSNCRPKLTCCPTCRGPLGSIRNLAMEKVANSVLFPCKYASSGCEITLPHTEKAEHEELCEFRPYSCPCPGASCKWQGSLDAVMPHLMHQHKSITTDQGEDIVFLATDINLPGAVDWVMMQSCFGFHFMLVLEKQEKYDGHQQFFAIVQLIGTRKQAENFAYRLELNGHRRRLTWEATPRSIHEGIATAIMNSDCLVFDTSIAQLFAENGNLGINVTISMC [L158D] was tested, and the “effect of a mutation on the interaction” value was “disrupting interaction strength”. For MSRQTATALPTGTSKCPPSQRVPALTGTTASNNDLASLFECPVCFDYVLPPILQCQSGHLVCSNCRPKLTCCPTCRGPLGSIRNLAMEKVANSVLFPCKYASSGCEITLPHTEKAEHEELCEFRPYSCPCPGASCKWQGSLDAVMPHLMHQHKSITTLQGEDIVFLATDINLPGAVDWVKMQSCFGFHFMLVLEKQEKYDGHQQFFAIVQLIGTRKQAENFAYRLELNGHRRRLTWEATPRSIHEGIATAIMNSDCLVFDTSIAQLFAENGNLGINVTISMC [M180K], the “effect of a mutation on the interaction” value was “disrupting interaction”.
